Measurements from paper PMC4412286.

Biological target: phosphoinositol 3-kinase (PI3-kinase), p85 subunit (human (endogenous in AGS)) (UniProt P27986)
Sequence of UniProt P27986 (P27986 whole entry): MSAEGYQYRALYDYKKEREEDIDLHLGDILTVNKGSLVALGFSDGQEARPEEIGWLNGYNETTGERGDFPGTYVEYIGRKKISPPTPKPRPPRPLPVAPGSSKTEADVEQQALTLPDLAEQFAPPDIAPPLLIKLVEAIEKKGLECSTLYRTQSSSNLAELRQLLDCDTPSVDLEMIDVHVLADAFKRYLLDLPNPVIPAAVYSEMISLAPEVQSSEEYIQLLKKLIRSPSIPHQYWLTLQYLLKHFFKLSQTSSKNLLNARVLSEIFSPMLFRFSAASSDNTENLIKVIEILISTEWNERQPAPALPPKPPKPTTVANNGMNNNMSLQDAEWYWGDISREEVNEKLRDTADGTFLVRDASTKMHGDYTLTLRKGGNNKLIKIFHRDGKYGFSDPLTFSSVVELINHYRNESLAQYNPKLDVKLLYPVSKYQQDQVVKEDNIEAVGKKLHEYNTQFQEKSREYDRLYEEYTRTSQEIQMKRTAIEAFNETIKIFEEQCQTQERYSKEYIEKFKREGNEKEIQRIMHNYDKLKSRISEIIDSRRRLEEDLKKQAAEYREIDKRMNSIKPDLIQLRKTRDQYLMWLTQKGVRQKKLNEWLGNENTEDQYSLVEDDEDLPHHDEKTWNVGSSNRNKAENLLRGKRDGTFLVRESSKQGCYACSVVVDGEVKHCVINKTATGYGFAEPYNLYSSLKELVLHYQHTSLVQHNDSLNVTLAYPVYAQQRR

“CagA of H. pylori strain 147C with EPIYA B-TPM, HA fusion (natural protein)” gave a phosphorylation of AKT at threonine 308 in AGS cells after 24 h co-culture with the EPIYA isogenic strain (immunoblot, fold) of 1.7 fold.

“CagA of H. pylori strain 147C with EPIYT B-TPM (wild-type 147C sequence), HA fusion (natural protein)” showed a phosphorylation of AKT at threonine 308 in AGS cells after 24 h co-culture with the EPIYT isogenic strain (immunoblot, fold) of 2.4 fold.
